Measured values reported in article PMC3749868, “Proteolytic processing of QSOX1A ensures efficient secretion of a potent disulfide catalyst” (Biochemical Journal, 2013).

Experiments:
[1] = molecular target: cleaved QSOX1A (soluble product of the proteolytic processing of QSOX1A–V5, without the TM domain and the V5 tag) (human); experiment: SEC; protein secreted for 3 h into serum-free medium, concentrated and buffer-exchanged (gel-filtration buffer with 0.03% Triton X-100 by the legend, 0.02% DDM by the methods), S200 PC3.2/30 column; fractions analysed by Western blot
[2] = molecular target: cleaved QSOX1A (soluble product of the proteolytic processing of QSOX1A–V5, without the TM domain and the V5 tag) (human); experiment: SEC; cell lysate (2% DDM) of the QSOX1A–V5 cell line, Sephadex 200 PC3.2/30 column, 50 mM Tris/HCl pH 7.5, 150 mM NaCl, 1 mM EDTA, 0.02% DDM; fractions analysed by Western blot (anti-V5, anti-QSOX1A)
[3] = molecular target: QSOX1B–V5 (quiescin sulfhydryl oxidase 1, splice variant B, V5-tagged) (human) (UniProt O00391); experiment: SEC; protein secreted for 3 h into serum-free medium, concentrated and buffer-exchanged (gel-filtration buffer with 0.03% Triton X-100 by the legend, 0.02% DDM by the methods), S200 PC3.2/30 column; fractions analysed by Western blot
[4] = molecular target: the molecule itself; experiment: cross-linking; thiol-specific cross-linker BMH, 0.1 mM, added to intact cells in KHM buffer, 30 min on ice, stopped with 20 mM DTT; lysates analysed by Western blot or by immunoisolation (anti-V5–agarose, then anti-QSOX1A) of radiolabelled proteins; MS of the cross-linked product (results not shown)

cleaved QSOX1A (soluble product of the proteolytic processing of QSOX1A–V5, without the TM domain and the V5 tag) (domain or fragment)
stoichiometry N [1]: 2
stoichiometry N [2]: 2

QSOX1B–V5 (quiescin sulfhydryl oxidase 1, splice variant B, V5-tagged) (from UniProt O00391-2 30-604) (enzyme)
stoichiometry N [3]: 2

B1: QSOX1A–V5 (quiescin sulfhydryl oxidase 1, splice variant A, V5-tagged, uncleaved) (enzyme, human, UniProt O00391 30-747, looked up)
chain: APRSALYSPSDPLTLLQADTVRGAVLGSRSAWAVEFFASWCGHCIAFAPTWKALAEDVKAWRPALYLAALDCAEETNSAVCRDFNIPGFPTVRFFKAFTKNGSGAVFPVAGADVQTLRERLIDALESHHDTWPPACPPLEPAKLEEIDGFFARNNEEYLALIFEKGGSYLGREVALDLSQHKGVAVRRVLNTEANVVRKFGVTDFPSCYLLFRNGSVSRVPVLMESRSFYTAYLQRLSGLTREAAQTTVAPTTANKIAPTVWKLADRSKIYMADLESALHYILRIEVGRFPVLEGQRLVALKKFVAVLAKYFPGRPLVQNFLHSVNEWLKRQKRNKIPYSFFKTALDDRKEGAVLAKKVNWIGCQGSEPHFRGFPCSLWVLFHFLTVQAARQNVDHSQEAAKAKEVLPAIRGYVHYFFGCRDCASHFEQMAAASMHRVGSPNAAVLWLWSSHNRVNARLAGAPSEDPQFPKVQWPPRELCSACHNERLDVPVWDVEATLNFLKAHFSPSNIILDFPAAGSAARRDVQNVAAAPELAMGALELESRNSTLDPGKPEMMKSPTNTTPHVPAEGPEASRPPKLHPGLRAAPGQEPPEHMAELQRNEQEQPLGQWHLSKRDTGAALLAESRAEKNRLWGPLEVRRVGRSSKQLVDIPEGQLEARAGRGRGQWLQVLGGGFSYLDISLCVGLYSLSFMGLLAMYTYFQAKIRALKGHAGHPAA
notes: human QSOX1A, the long splice variant of QSOX1 with 143 additional C-terminal amino acids including the single-pass TM domain; uncleaved (full-length) form; Membrane-integrated, V5 on the cytosolic side; also called V5-tagged QSOX1A; uncleaved QSOX1A–V5; source: HT1080, stably overexpressing (cross-linking in cells, SEC of lysate); HT1080, transiently co-transfected, in lysate (co-assembly); not …
stoichiometry N [4]: 2
